Measurements reported in patent publication US20110117110A1 (FACET BIOTECH, published 2011).

Key:
EGFR on A431 cells [1] = target: T1, EGFR on A431 cells (human, UniProt P00533 25-1210); assay: FACS competition on A431 cells: unlabelled antibody against biotinylated cetuximab (0.5 µg/mL), streptavidin-RPE detection; Trial 1
T1 construct: whole, on cells; also called epidermal growth factor receptor; ErbB-1
Description: (§1) A431 cells were grown to 2×10⁵ cells per well of V-bottom 96-well plates. Cells were washed with FACS staining buffer (FSB). […] The plates were then incubated on ice for 1 hour, and then washed twice with FSB. […] Cells were washed two times with FSB, and stained cells were resuspended with 200 μL of fixing buffer (1% paraformaldehyde). Samples were read using a flow cytometer.

EGFR on A431 cells [2] = target: T1, EGFR on A431 cells; assay: FACS competition on A431 cells against biotinylated cetuximab; panel FACS Competition (3)
Description: as §1

EGFR on A431 cells [3] = target: T1, EGFR on A431 cells; assay: FACS competition on A431 cells: unlabelled antibody against biotinylated cetuximab (0.5 µg/mL), streptavidin-RPE detection; column Average of Trials 1-3, column SD prints 0.4
Description: as §1

EGFR on A431 cells [4] = target: T1, EGFR on A431 cells; assay: FACS competition on A431 cells: unlabelled antibody against biotinylated cetuximab (0.5 µg/mL), streptavidin-RPE detection; Trial 3
Description: as §1

EGFR on A431 cells [5] = target: T1, EGFR on A431 cells; assay: FACS competition on A431 cells: unlabelled antibody against biotinylated cetuximab (0.5 µg/mL), streptavidin-RPE detection; Trial 2
Description: as §1

EGFR on A431 cells [6] = target: T1, EGFR on A431 cells; assay: FACS competition on A431 cells against biotinylated cetuximab; panel FACS Competition (2)
Description: as §1

B1: hu225 (antibody, V domains shown)
VH: EVQLVESGGGLVQPGGSLRLSCAASGFSLTNYGVHWVRQAPGKGLEWLGVIWSGGNTDYNTPFTSRLTINKDNSKNTVYLQMNSLRAEDTAVYYCARALTYYDYEFAYWGQGTLVTVSS
VL: DILLTQSPGTLSLSPGERATLSCRASQSIGTNIHWYQQKPGQAPRLLIKYASESISGIPDRFSGSGSGTDFTLTISRLEPEDFAVYYCQQNNNWPTTFGQGTKLEIKR
notes: also called humanized version of MAb225; humanized cetuximab
- IC50 (EGFR on A431 cells [1]): 1.71 µg/mL
- IC50 (read off the curve) (EGFR on A431 cells [2]): ~3 µg/mL
- IC50 (EGFR on A431 cells [3]): 1.79 µg/mL
- IC50 (EGFR on A431 cells [4]): 2.62 µg/mL
- IC50 (EGFR on A431 cells [5]): 1.06 µg/mL
- IC50 (read off the curve) (EGFR on A431 cells [6]): ~1 µg/mL
